B1: 10-mer-A (M) (dsDNA)
DNA 1: GTCAGTCAGATTGCGCAATATAGGTCAG
DNA 2: CTGACCTATATTGCGCAATCTGACTGAC
modifications: 5mC at position 14 of each strand
B2: Hetero (CGAT|GCAA) unmethylated (dsDNA)
DNA 1: GTCAGTCAGACGATGCAATATAGGTCAG
DNA 2: CTGACCTATATTGCATCGTCTGACTGAC

Key:
CEBPB B-ZIP domain = CEBPB B-ZIP domain (mouse, UniProt P28033 222-285); test: EMSA
[1] = biological target: CEBPB B-ZIP domain;ATF4 B-ZIP domain (mouse;mouse, UniProt P28033;Q06507 222-285;276-339, |); test: EMSA
Sequence of CEBPB B-ZIP domain;ATF4 B-ZIP domain (P28033 222-285, chain 1 of 2): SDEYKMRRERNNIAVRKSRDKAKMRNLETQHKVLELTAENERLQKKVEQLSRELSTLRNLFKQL
Sequence of CEBPB B-ZIP domain;ATF4 B-ZIP domain (Q06507 276-339, chain 2 of 2): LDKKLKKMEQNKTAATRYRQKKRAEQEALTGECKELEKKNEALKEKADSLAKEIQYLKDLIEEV

Sequence of CEBPB B-ZIP domain (P28033 222-285): as the sequence (P28033 222-285, chain 1 of 2) above

Row | Binder | apparent K (half saturation) (CEBPB B-ZIP domain) | binding signal [1]
1 | B1 | ~5 nM | 
2 | B2 |  | 10 fold weaker than methylated N2

Source: PMC3668366
